Test results taken from ChEMBL document CHEMBL1136363, “Rational approaches towards reversible inhibition of type B monoamine oxidase. Design and evaluation of a novel 5H-Indeno[1,2-c]pyridazin-5-one derivative” (Bioorg Med Chem Lett, 2003).

B1: Amine oxidase [flavin-containing] B (Homo sapiens) (protein)
chain: MSNKCDVVVVGGGISGMAAAKLLHDSGLNVVVLEARDRVGGRTYTLRNQKVKYVDLGGSYVGPTQNRILRLAKELGLETYKVNEVERLIHHVKGKSYPFRGPFPPVWNPITYLDHNNFWRTMDDMGREIPSDAPWKAPLAEEWDNMTMKELLDKLCWTESAKQLATLFVNLCVTAETHEVSALWFLWYVKQCGGTTRIISTTNGGQERKFVGGSGQVSERIMDLLGDRVKLERPVIYIDQTRENVLVETLNHEMYEAKYVISAIPPTLGMKIHFNPPLPMMRNQMITRVPLGSVIKCIVYYKEPFWRKKDYCGTMIIDGEEAPVAYTLDDTKPEGNYAAIMGFILAHKARKLARLTKEERLKKLCELYAKVLGSLEALEPVHYEEKNWCEEQYSGGCYTTYFPPGILTQYGRVLRQPVDRIYFAGTETATHWSGYMEGAVEAGERAAREILHAMGKIPEDEIWQSEPESVDVPAQPITTTFLERHLPSVPGLLRLIGLTTIFSATALGFLAHKRGLLVRV
B2: Amine oxidase [flavin-containing] A (Homo sapiens) (protein)
chain: MENQEKASIAGHMFDVVVIGGGISGLSAAKLLTEYGVSVLVLEARDRVGGRTYTIRNEHVDYVDVGGAYVGPTQNRILRLSKELGIETYKVNVSERLVQYVKGKTYPFRGAFPPVWNPIAYLDYNNLWRTIDNMGKEIPTDAPWEAQHADKWDKMTMKELIDKICWTKTARRFAYLFVNINVTSEPHEVSALWFLWYVKQCGGTTRIFSVTNGGQERKFVGGSGQVSERIMDLLGDQVKLNHPVTHVDQSSDNIIIETLNHEHYECKYVINAIPPTLTAKIHFRPELPAERNQLIQRLPMGAVIKCMMYYKEAFWKKKDYCGCMIIEDEDAPISITLDDTKPDGSLPAIMGFILARKADRLAKLHKEIRKKKICELYAKVLGSQEALHPVHYEEKNWCEEQYSGGCYTAYFPPGIMTQYGRVIRQPVGRIFFAGTETATKWSGYMEGAVEAGERAAREVLNGLGKVTEKDIWVQEPESKDVPAVEITHTFWERNLPSVSGLLKIIGFSTSVTALGFVLYKYKLLPRS

Legend:
[1] = substrate: CN1CC=C(C2CCCN2C)CC1; assay: Km value for Monoamine oxidase B was determined in baboon liver tissue.; set-up: species or system Papio hamadryas
[2] = substrate: CN1CC=C(C2CCCN2C)CC1; assay: Km value for Monoamine oxidase A was determined in human placental tissue

Row | Protein | Km [1] [µM] | Km [2] [µM]
1 | B1 | 60.9 | 
2 | B2 |  | 52
